{"source": "paper PMC6687821", "about": "“Brain-targeted drug delivery by manipulating protein corona functions” (Nature Communications, 2019)", "binders": {"B1": {"name": "I-125 radiolabeled recombinant human LRP1 Cluster II Fc Chimera, Human IgG1 (Fc fusion, UniProt Q07954 852-1182, looked up)", "chain": "PQCQPGEFACANSRCIQERWKCDGDNDCLDNSDEAPALCHQHTCPSDRFKCENNRCIPNRWLCDGDNDCGNSEDESNATCSARTCPPNQFSCASGRCIPISWTCDLDDDCGDRSDESASCAYPTCFPLTQFTCNNGRCININWRCDNDNDCGDNSDEAGCSHSCSSTQFKCNSGRCIPEHWTCDGDNDCGDYSDETHANCTNQATRPPGGCHTDEFQCRLDGLCIPLRWRCDGDTDCMDSSDEKSCEGVTHVCDPSVKFGCKDSARCISKAWVCDGDNDCEDNSDEENCESLACRPPSHPCANNTSVCLPPDKLCDGNDDCGDGSDEGELC", "modifications": "I-125 radiolabel (residues not stated)", "notes": "Same bought protein as m6, radiolabeled; the labelling method is not described; also called I^125 radiolabeled rhLRP1; radiolabeled rhLRP1; source: bought: R&D system, then I-125 radiolabeled"}}, "molecular_target": "T1, mouse plasma ApoE (mouse (endogenous in BALB/c plasma), UniProt P08226 19-311)", "T1 construct": "apolipoprotein E, mouse, band of 36 kDa identified by nano-LC-MS/MS; also called apolipoprotein E; source: endogenous, BALB/c mouse plasma (in vitro) or blood of injected BALB/c mice (in vivo)", "T1 sequence (looked up)": "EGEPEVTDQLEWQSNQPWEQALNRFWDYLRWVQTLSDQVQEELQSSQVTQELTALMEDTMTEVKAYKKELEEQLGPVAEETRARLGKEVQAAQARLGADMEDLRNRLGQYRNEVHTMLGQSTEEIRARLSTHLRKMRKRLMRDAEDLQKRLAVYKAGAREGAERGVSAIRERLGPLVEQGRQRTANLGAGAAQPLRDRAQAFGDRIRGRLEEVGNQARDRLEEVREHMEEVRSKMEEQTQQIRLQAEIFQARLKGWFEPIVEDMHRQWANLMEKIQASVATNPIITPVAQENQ", "test": "radioligand binding; SP-sLip (100 μL, 10 mg/mL) with mouse plasma (100 μL) at 37 °C for 1 h, then I-125 rhLRP1 (6 μCi, 0.5 μg) for 1 h at 37 °C; pellet at 19k RCF 30 min, three washes with cold PBS, gamma counter; plain sLip as control", "details": "one partner purified"}
{"binder": "B1", "values": [{"measurement": "fold of rhLRP1 absorbed on SP-sLip over plain sLip, after preincubation with mouse plasma", "value": 8.4, "unit": "fold"}]}
